According to patent US20120027684A1 (IMMATICS BIOTECHNOLOGIES, published 2012):

Target: HLA A*0201 (human)
Assay: ELISA-based peptide-HLA binding method (Sylvester-Hvid et al., 2002)

LLGATCMFV (also called cyclin peptide CCN-001) [CCN-001]
binding result: binds
